Measurements as given in article PMC11605450, “Azotobacter vinelandii scaffold protein NifU transfers iron to NifQ as part of the iron-molybdenum cofactor biosynthesis pathway for nitrogenase” (The Journal of Biological Chemistry, 2024).

Tests used:
[1] = biological target: apo-NifQH (A. vinelandii NifQ, C-terminal 6xHis, without [Fe-S] cluster) (A. vinelandii) (UniProt P11068); assay: pull-down; apo-NifQH, AS-NifUS and SNifS (10 nmol of each) incubated together 5 min, anaerobic, buffer W (100 mM Tris-HCl pH 8.0, 150 mM NaCl, 10% glycerol); Ni-NTA agarose column, washes with 5 and 20 mM imidazole, elution with 150 mM imidazole; immunoblots
[2] = biological target: R-NifUS (A. vinelandii NifU, C-terminal Strep-tag, with in vitro reconstituted [Fe-S] clusters) (A. vinelandii) (UniProt P05340)
R-NifUS (A. vinelandii NifU, C-terminal Strep-tag, with in vitro reconstituted [Fe-S] clusters) (A. vinelandii), sequence (P05340 whole entry): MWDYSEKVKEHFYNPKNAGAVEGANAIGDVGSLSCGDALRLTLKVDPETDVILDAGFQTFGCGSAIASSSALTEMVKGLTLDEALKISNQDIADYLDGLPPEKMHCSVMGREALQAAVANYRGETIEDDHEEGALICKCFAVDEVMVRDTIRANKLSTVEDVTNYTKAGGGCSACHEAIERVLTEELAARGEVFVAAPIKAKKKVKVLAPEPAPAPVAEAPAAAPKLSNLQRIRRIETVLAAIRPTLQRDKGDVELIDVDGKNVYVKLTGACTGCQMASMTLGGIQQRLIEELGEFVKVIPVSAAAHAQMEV

[3] = biological target: T1, apo-NifQH (A. vinelandii NifQ, C-terminal 6xHis, without [Fe-S] cluster) (A. vinelandii, UniProt P11068 1-195); assay: pull-down; 10 nmol of Strep-tagged bait (AS-NifUS or R-IscUS) immobilised on a Streptactin-XT column in anaerobic buffer A (50 mM Tris-HCl pH 8.0, 100 mM NaCl, 10% glycerol), 10 nmol NifQH loaded onto the charged column, washed, eluted with 50 mM biotin; details: both partners purified
T1 construct: Purified aerobically to destroy the [Fe-S] clusters; source: E. coli BL21 (DE3), purified (Ni-NTA, aerobic conditions); not shown: His6, C-terminal, kept
T1 sequence (looked up): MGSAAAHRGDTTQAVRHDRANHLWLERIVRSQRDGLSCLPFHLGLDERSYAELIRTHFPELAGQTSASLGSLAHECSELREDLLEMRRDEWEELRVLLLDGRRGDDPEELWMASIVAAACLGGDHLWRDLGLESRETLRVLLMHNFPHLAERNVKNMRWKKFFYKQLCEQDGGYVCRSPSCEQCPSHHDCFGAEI

AS-NifUS (as-isolated A. vinelandii NifU, C-terminal Strep-tag) (from UniProt P05340 1-312) (natural protein)
percent of the total protein co-eluted [1]: 10%

apo-NifQH (A. vinelandii NifQ, C-terminal 6xHis, without [Fe-S] cluster) (from UniProt P11068 1-195) (natural protein)
iron content per monomer of NifQH in the flowthrough of a Strep-tactin column after 5 min incubation of apo-NifQH with R-NifUS (Fe per NifQH monomer (molar ratio)) [2]: 1

B1: R-IscUS (A. vinelandii IscU, Strep-tag, with in vitro reconstituted [Fe-S] clusters) (natural protein, UniProt O31270 1-128, looked up)
chain: MAYSDKVIDHYENPRNVGKLDAQDPDVGTGMVGAPACGDVMRLQIKVNEQGIIEDAKFKTYGCGSAIASSSLATEWMKGRTLEEAETIKNTQIAEELALPPVKIHCSVLAEDAIKAAVRDYKHKKGLV
notes: also called R-SIscU; source: E. coli BL21 (DE3), purified (Strep-Tactin XT, anaerobic), [Fe-S] clusters reconstituted in vitro; not shown: Strep-tag, C-terminal, kept
binding result [3]: binds
